Source: patent US20250218531A1 (ABSCI, published 2025)
Read-outs that look alike come from different tables or passages of the source.

Columns and labels:
[1] = target: T1, human epidermal growth factor receptor 2 (HER2) extracellular domain (human, UniProt P04626 23-629); assay: SPR, Fab format
[2] = target: T1, human epidermal growth factor receptor …; assay: SPR, Fab format; remark: listed apart in the source

Binder	Kd [1] [nM]	log(KD (M)) [1] [log M]	Kd [2] [nM]	log(KD (M)) [2] [log M]
De novo trastuzumab HCDR1|2|3 variant GFNVSSSY / IYPENGST / SRYSYYGGYAFDY (Fab, V domains shown, also called AI Design 1) VH: EVQLVESGGGLVQPGGSLRLSCAASGFNVSSSYIHWVRQAPGKGLEWVARIYPENGSTRYADSVKGRFTISADTSKNTAYLQMNSLRAEDTAVYYCSRYSYYGGYAFDYWGQGTLVTVSS VL: not shown	225	-6.65		
De novo trastuzumab HCDR3 variant ARDYDFGLSVGAV (SEQ ID NO: 486) (Fab, V domains shown) VH: EVQLVESGGGLVQPGGSLRLSCAASGFNIKDTYIHWVRQAPGKGLEWVARIYPTNGYTRYADSVKGRFTISADTSKNTAYLQMNSLRAEDTAVYYCARDYDFGLSVGAVWGQGTLVTVSS VL: not shown			358	-6.45
Multi-step trastuzumab HCDR3 variant ASSGGSSSYSYYY (SEQ ID NO: 513) (Fab, V domains shown) VH: EVQLVESGGGLVQPGGSLRLSCAASGFNIKDTYIHWVRQAPGKGLEWVARIYPTNGYTRYADSVKGRFTISADTSKNTAYLQMNSLRAEDTAVYYCASSGGSSSYSYYYWGQGTLVTVSS VL: not shown	1720	-5.76		
Multi-step trastuzumab HCDR3 variant ARYRGRGFYSFDY (SEQ ID NO: 532) (Fab, V domains shown) VH: EVQLVESGGGLVQPGGSLRLSCAASGFNIKDTYIHWVRQAPGKGLEWVARIYPTNGYTRYADSVKGRFTISADTSKNTAYLQMNSLRAEDTAVYYCARYRGRGFYSFDYWGQGTLVTVSS VL: not shown	22	-7.66		
Multi-step trastuzumab HCDR3 variant ARYSGDSYYYYDY (SEQ ID NO: 550) (Fab, V domains shown) VH: EVQLVESGGGLVQPGGSLRLSCAASGFNIKDTYIHWVRQAPGKGLEWVARIYPTNGYTRYADSVKGRFTISADTSKNTAYLQMNSLRAEDTAVYYCARYSGDSYYYYDYWGQGTLVTVSS VL: not shown	366	-6.44		
Multi-step trastuzumab HCDR3 variant ARTGGSSYYAYDY (SEQ ID NO: 520) (Fab, V domains shown) VH: EVQLVESGGGLVQPGGSLRLSCAASGFNIKDTYIHWVRQAPGKGLEWVARIYPTNGYTRYADSVKGRFTISADTSKNTAYLQMNSLRAEDTAVYYCARTGGSSYYAYDYWGQGTLVTVSS VL: not shown	901	-6.05		
Multi-step trastuzumab HCDR3 variant ARYGGRGYYSFDY (SEQ ID NO: 533) (Fab, V domains shown) VH: EVQLVESGGGLVQPGGSLRLSCAASGFNIKDTYIHWVRQAPGKGLEWVARIYPTNGYTRYADSVKGRFTISADTSKNTAYLQMNSLRAEDTAVYYCARYGGRGYYSFDYWGQGTLVTVSS VL: not shown	26.2	-7.58		
De novo trastuzumab HCDR3 variant ARSNNWYSYSFQF (SEQ ID NO: 478) (Fab, V domains shown) VH: EVQLVESGGGLVQPGGSLRLSCAASGFNIKDTYIHWVRQAPGKGLEWVARIYPTNGYTRYADSVKGRFTISADTSKNTAYLQMNSLRAEDTAVYYCARSNNWYSYSFQFWGQGTLVTVSS VL: not shown			278	-6.56
Multi-step trastuzumab HCDR3 variant SRYSYSGGGSFDY (SEQ ID NO: 537) (Fab, V domains shown) VH: EVQLVESGGGLVQPGGSLRLSCAASGFNIKDTYIHWVRQAPGKGLEWVARIYPTNGYTRYADSVKGRFTISADTSKNTAYLQMNSLRAEDTAVYYCSRYSYSGGGSFDYWGQGTLVTVSS VL: not shown	362	-6.44		
Multi-step trastuzumab HCDR3 variant ARYGGDYYYYYDY (SEQ ID NO: 527) (Fab, V domains shown) VH: EVQLVESGGGLVQPGGSLRLSCAASGFNIKDTYIHWVRQAPGKGLEWVARIYPTNGYTRYADSVKGRFTISADTSKNTAYLQMNSLRAEDTAVYYCARYGGDYYYYYDYWGQGTLVTVSS VL: not shown	57	-7.24		
Multi-step trastuzumab HCDR3 variant ARVGGYGYYSYDY (SEQ ID NO: 539) (Fab, V domains shown) VH: EVQLVESGGGLVQPGGSLRLSCAASGFNIKDTYIHWVRQAPGKGLEWVARIYPTNGYTRYADSVKGRFTISADTSKNTAYLQMNSLRAEDTAVYYCARVGGYGYYSYDYWGQGTLVTVSS VL: not shown	169	-6.77		
Multi-step trastuzumab HCDR3 variant ARYSGSSYYYYDY (SEQ ID NO: 536) (Fab, V domains shown) VH: EVQLVESGGGLVQPGGSLRLSCAASGFNIKDTYIHWVRQAPGKGLEWVARIYPTNGYTRYADSVKGRFTISADTSKNTAYLQMNSLRAEDTAVYYCARYSGSSYYYYDYWGQGTLVTVSS VL: not shown	423	-6.37		
Multi-step trastuzumab HCDR3 variant ARYSYYGGGYFDY (SEQ ID NO: 515) (Fab, V domains shown) VH: EVQLVESGGGLVQPGGSLRLSCAASGFNIKDTYIHWVRQAPGKGLEWVARIYPTNGYTRYADSVKGRFTISADTSKNTAYLQMNSLRAEDTAVYYCARYSYYGGGYFDYWGQGTLVTVSS VL: not shown	478	-6.32		
Multi-step trastuzumab HCDR3 variant ARSYGSGSYSFDY (SEQ ID NO: 514) (Fab, V domains shown) VH: EVQLVESGGGLVQPGGSLRLSCAASGFNIKDTYIHWVRQAPGKGLEWVARIYPTNGYTRYADSVKGRFTISADTSKNTAYLQMNSLRAEDTAVYYCARSYGSGSYSFDYWGQGTLVTVSS VL: not shown	495	-6.31		
Multi-step trastuzumab HCDR3 variant ARYGGSYFYYYSY (SEQ ID NO: 517) (Fab, V domains shown) VH: EVQLVESGGGLVQPGGSLRLSCAASGFNIKDTYIHWVRQAPGKGLEWVARIYPTNGYTRYADSVKGRFTISADTSKNTAYLQMNSLRAEDTAVYYCARYGGSYFYYYSYWGQGTLVTVSS VL: not shown	7.31	-8.14		
De novo trastuzumab HCDR3 variant ARLGASHGYLYDD (SEQ ID NO: 484) (Fab, V domains shown) VH: EVQLVESGGGLVQPGGSLRLSCAASGFNIKDTYIHWVRQAPGKGLEWVARIYPTNGYTRYADSVKGRFTISADTSKNTAYLQMNSLRAEDTAVYYCARLGASHGYLYDDWGQGTLVTVSS VL: not shown			328	-6.48

Binder	Kd [1] [nM]	log(KD (M)) [1] [log M]	Kd [2] [nM]	log(KD (M)) [2] [log M]
De novo trastuzumab HCDR3 variant ARGYAYYVAGREY (SEQ ID NO: 493) (Fab, V domains shown) VH: EVQLVESGGGLVQPGGSLRLSCAASGFNIKDTYIHWVRQAPGKGLEWVARIYPTNGYTRYADSVKGRFTISADTSKNTAYLQMNSLRAEDTAVYYCARGYAYYVAGREYWGQGTLVTVSS VL: not shown			496	-6.3
Multi-step trastuzumab HCDR3 variant ARYGGSSYYYFDY (SEQ ID NO: 528) (Fab, V domains shown) VH: EVQLVESGGGLVQPGGSLRLSCAASGFNIKDTYIHWVRQAPGKGLEWVARIYPTNGYTRYADSVKGRFTISADTSKNTAYLQMNSLRAEDTAVYYCARYGGSSYYYFDYWGQGTLVTVSS VL: not shown	97.2	-7.01		
Multi-step trastuzumab HCDR3 variant ARYGGSSNYYYDY (SEQ ID NO: 518) (Fab, V domains shown) VH: EVQLVESGGGLVQPGGSLRLSCAASGFNIKDTYIHWVRQAPGKGLEWVARIYPTNGYTRYADSVKGRFTISADTSKNTAYLQMNSLRAEDTAVYYCARYGGSSNYYYDYWGQGTLVTVSS VL: not shown	441	-6.36		
Multi-step trastuzumab HCDR3 variant ARYYGSSSYYFAY (SEQ ID NO: 75) (Fab, V domains shown, also called AI Design 9) VH: EVQLVESGGGLVQPGGSLRLSCAASGFNIKDTYIHWVRQAPGKGLEWVARIYPTNGYTRYADSVKGRFTISADTSKNTAYLQMNSLRAEDTAVYYCARYYGSSSYYFAYWGQGTLVTVSS VL: not shown	60.6	-7.22		
Multi-step trastuzumab HCDR3 variant TRYGSFGYYALDS (SEQ ID NO: 530) (Fab, V domains shown) VH: EVQLVESGGGLVQPGGSLRLSCAASGFNIKDTYIHWVRQAPGKGLEWVARIYPTNGYTRYADSVKGRFTISADTSKNTAYLQMNSLRAEDTAVYYCTRYGSFGYYALDSWGQGTLVTVSS VL: not shown	57.6	-7.24		
Multi-step trastuzumab HCDR3 variant ARYSYYGGGAFDY (SEQ ID NO: 543) (Fab, V domains shown) VH: EVQLVESGGGLVQPGGSLRLSCAASGFNIKDTYIHWVRQAPGKGLEWVARIYPTNGYTRYADSVKGRFTISADTSKNTAYLQMNSLRAEDTAVYYCARYSYYGGGAFDYWGQGTLVTVSS VL: not shown	191	-6.72		
De novo trastuzumab HCDR3 variant ARNYYGAAYYFDY (SEQ ID NO: 495) (Fab, V domains shown) VH: EVQLVESGGGLVQPGGSLRLSCAASGFNIKDTYIHWVRQAPGKGLEWVARIYPTNGYTRYADSVKGRFTISADTSKNTAYLQMNSLRAEDTAVYYCARNYYGAAYYFDYWGQGTLVTVSS VL: not shown			570	-6.24
Multi-step trastuzumab HCDR3 variant ARVGGRGYYAYDY (SEQ ID NO: 552) (Fab, V domains shown) VH: EVQLVESGGGLVQPGGSLRLSCAASGFNIKDTYIHWVRQAPGKGLEWVARIYPTNGYTRYADSVKGRFTISADTSKNTAYLQMNSLRAEDTAVYYCARVGGRGYYAYDYWGQGTLVTVSS VL: not shown	2290	-5.64		
Multi-step trastuzumab HCDR3 variant ARSTGSGFYSYDY (SEQ ID NO: 547) (Fab, V domains shown) VH: EVQLVESGGGLVQPGGSLRLSCAASGFNIKDTYIHWVRQAPGKGLEWVARIYPTNGYTRYADSVKGRFTISADTSKNTAYLQMNSLRAEDTAVYYCARSTGSGFYSYDYWGQGTLVTVSS VL: not shown	330	-6.48		
Multi-step trastuzumab HCDR3 variant ARYGGGYYYYYDY (SEQ ID NO: 531) (Fab, V domains shown) VH: EVQLVESGGGLVQPGGSLRLSCAASGFNIKDTYIHWVRQAPGKGLEWVARIYPTNGYTRYADSVKGRFTISADTSKNTAYLQMNSLRAEDTAVYYCARYGGGYYYYYDYWGQGTLVTVSS VL: not shown	57.6	-7.24		
Multi-step trastuzumab HCDR3 variant ARYGGRSSYYFDY (SEQ ID NO: 545) (Fab, V domains shown) VH: EVQLVESGGGLVQPGGSLRLSCAASGFNIKDTYIHWVRQAPGKGLEWVARIYPTNGYTRYADSVKGRFTISADTSKNTAYLQMNSLRAEDTAVYYCARYGGRSSYYFDYWGQGTLVTVSS VL: not shown	257	-6.59		
Multi-step trastuzumab HCDR3 variant ARYGGSSYYYYDY (SEQ ID NO: 529) (Fab, V domains shown) VH: EVQLVESGGGLVQPGGSLRLSCAASGFNIKDTYIHWVRQAPGKGLEWVARIYPTNGYTRYADSVKGRFTISADTSKNTAYLQMNSLRAEDTAVYYCARYGGSSYYYYDYWGQGTLVTVSS VL: not shown	72.3	-7.14		
Multi-step trastuzumab HCDR3 variant SRYGYSGYGAFDY (SEQ ID NO: 521) (Fab, V domains shown) VH: EVQLVESGGGLVQPGGSLRLSCAASGFNIKDTYIHWVRQAPGKGLEWVARIYPTNGYTRYADSVKGRFTISADTSKNTAYLQMNSLRAEDTAVYYCSRYGYSGYGAFDYWGQGTLVTVSS VL: not shown	1050	-5.98		
Multi-step trastuzumab HCDR3 variant TRYSYYGYHAMDY (SEQ ID NO: 549) (Fab, V domains shown) VH: EVQLVESGGGLVQPGGSLRLSCAASGFNIKDTYIHWVRQAPGKGLEWVARIYPTNGYTRYADSVKGRFTISADTSKNTAYLQMNSLRAEDTAVYYCTRYSYYGYHAMDYWGQGTLVTVSS VL: not shown	354	-6.45		
Multi-step trastuzumab HCDR3 variant ARYSSSGGSAFDY (SEQ ID NO: 542) (Fab, V domains shown) VH: EVQLVESGGGLVQPGGSLRLSCAASGFNIKDTYIHWVRQAPGKGLEWVARIYPTNGYTRYADSVKGRFTISADTSKNTAYLQMNSLRAEDTAVYYCARYSSSGGSAFDYWGQGTLVTVSS VL: not shown	1990	-5.7		
